This data set concerns the molecule itself. Nature of the data set: SEC; Superdex S200 10/300 GL, 4 °C; 100-μl injections of 1.25 mg/ml and 0.25 mg/ml CC3ext; in-line MALS gave no molecular weight because of elution in the void volume.

B1: STIM1 CC3ext (residues 388-491) (domain or fragment, human, UniProt Q13586-1 388-491, looked up)
chain: NTLFGTFHVAHSSSLDDVDHKILTAKQALSEVTAALRERLHRWQQIEILCGFQIVNNPGIHSLVAALNIDPSWMGSTRPNPAHFIMTDDVDDMDEEIVSPLSMQ
notes: STIM1, human, residues 388-491 (CC3ext); Subcloned into pET-28a via NheI and XhoI; monomer 12.2 kDa on SDS-PAGE; also called recombinant CC3 fragment
Take B1: the binding result is “binds”.
